Measurements from the supplement of paper PMC10567573.

B1: RIT1 (parent)
chain: FHALVREIRRKEKEAVLAMEKKSK

Variants of: B1
Experiment: protein stability index of a GFP-peptide fusion (GPS, HEK-293T) (PSI 1-6); higher = more stable
Details: c terminus: a fixed tail appended
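Also: lentivirally expressed fusions sorted by FACS into six bins by GFP to DsRed ratio, PSI derived from sequencing read proportions per bin multiplied by bin number.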

Variant	protein stability index
FHALVREIRRKEIEAVLAMEKKSK	3.75
FHALVREIRRKEKEAVLAMECKSK	1.99
FHALVREIRRKEKEAVLAMEAKSK	1.9
FHALVREIRRKEKEAVLALEKKSK	3.14
FHALVREIRRKEKEAVLAKEKKSK	2.17
FHALVREIRRKEKEAVLATEKKSK	1.78
FHALVREIRRKEKEAVLADEKKSK	2.04
FHALVREIRRKEKEAVLAREKKSK	2.3
FHALVREIRRKEKEAVLAPEKKSK	1.7
FHALVREIRRKEKEAVLAAEKKSK	1.68
FHALVREIRRKEKEAVLANEKKSK	2.14
FHALVREIRRKEKEAVLAWEKKSK	1.53
FHALVREIRRKEKEAVLAIEKKSK	1.24
FHALVREIRRKEKEAVLAQEKKSK	1.44
FHALVREIRRKEKEAVLAYEKKSK	1.76
FHALVREIRRKEKEAVLAHEKKSK	1.35
FHALVREIRRKEKEAVLAGEKKSK	2.23
FHALVREIRRKEKEAVLASEKKSK	1.79
FHALVREIRRKEKEAVLAFEKKSK	2.23
FHALVREIRRKEKEAVLAVEKKSK	1.79
FHALVREIRRKEKEAVLAEEKKSK	1.88
FHALVREIRRKKKEAVLAMEKKSK	2.03
FHALVREIRRKNKEAVLAMEKKSK	2.45
FHALVREIRRKSKEAVLAMEKKSK	3

Variant	protein stability index
FHALVREIRRKCKEAVLAMEKKSK	1.81
FHALVREIRRKDKEAVLAMEKKSK	2.13
FHALVREIRRKMKEAVLAMEKKSK	3.96
FHALVREIRRKIKEAVLAMEKKSK	3.76
FHALVREIRRKFKEAVLAMEKKSK	1.64
FHALVREIRRKGKEAVLAMEKKSK	2.28
FHALVREIRRKAKEAVLAMEKKSK	3.79
FHALVREIRRKVKEAVLAMEKKSK	2.48
FHALVREIRRKYKEAVLAMEKKSK	2.69
FHALVREIRRKLKEAVLAMEKKSK	1.81
FHALVREIRRKQKEAVLAMEKKSK	1.89
FHALVREIRRKHKEAVLAMEKKSK	2.05
FHALVREIRRKRKEAVLAMEKKSK	2.06
FHALVREIRRKTKEAVLAMEKKSK	2.42
FHALVREIRRKEKEAVLPMEKKSK	1.23
FHALVREIRRKEKEAVLKMEKKSK	2.5
FHALVREIRRKEKEAVLIMEKKSK	1.69
FHALVREIRRKEKEAVLVMEKKSK	1.84
FHALVREIRRKEKEAVLYMEKKSK	1.18
FHALVREIRRKEKEAVLNMEKKSK	3.42
FHALVREIRRKEKEAVLLMEKKSK	1.66
FHALVREIRRKEKEAVLHMEKKSK	2.85
FHALVREIRRKEKEAVLEMEKKSK	1.22
FHALVREIRRKEKEAVLSMEKKSK	2.26

Variant	protein stability index
FHALVREIRRKEKEAVLRMEKKSK	2.11
FHALVREIRRKEKEAVLTMEKKSK	1.91
FHALVREIRRKEKEAVLCMEKKSK	1.89
FHALVREIRRKEKEAVLWMEKKSK	1.68
FHALVREIRRKEKEAVLDMEKKSK	1.96
FHALVREIRRKEKEAVLMMEKKSK	2.08
FHALVREIRRKEKEAVLQMEKKSK	1.95
FHALVREIRRKEKEAVLGMEKKSK	1.71
FHALVREIRRKEKEAVLFMEKKSK	2.15
FHALVREIRRKEKEAILAMEKKSK	1.36
FHALVREIRRKEKEAFLAMEKKSK	2.45
FHALVREIRRKEKEALLAMEKKSK	2.05
FHALVREIRRKEKEADLAMEKKSK	1.3
FHALVREIRRKEKEATLAMEKKSK	1.57
FHALVREIRRKEKEAHLAMEKKSK	2.47
FHALVREIRRKEKEAMLAMEKKSK	1.66
FHALVREIRRKEKEAWLAMEKKSK	2.27
FHALVREIRRKEKEAGLAMEKKSK	1.7
FHALVREIRRKEKEAPLAMEKKSK	2.62
FHALVREIRRKEKEAYLAMEKKSK	1.95
FHALVREIRRKEKEAELAMEKKSK	2.59
FHALVREIRRKEKEASLAMEKKSK	2.64
FHALVREIRRKEKEARLAMEKKSK	2.69
FHALVREIRRKEKEANLAMEKKSK	1.42

Variant	protein stability index
FHALVREIRRKEKEAALAMEKKSK	2.26
FHALVREIRRKEKEAQLAMEKKSK	2.22
FHALVREIRRKEKEAKLAMEKKSK	1.81
FHALVREIRRKEKEAVLAMNKKSK	1.88
FHALVREIRRKEKEAVLAMCKKSK	1.52
FHALVREIRRKEKEAVLAMTKKSK	1.92
FHALVREIRRKEKEAVLAMSKKSK	2.53
FHALVREIRRKEKEAVLAMVKKSK	2.52
FHALVREIRRKEKEAVLAMHKKSK	2.12
FHALVREIRRKEKEAVLAMMKKSK	2.08
FHALVREIRRKEKEAVLAMQKKSK	1.65
FHALVREIRRKEKEAVLAMAKKSK	2.07
FHALVREIRRKEKEAVLAMPKKSK	2.42
FHALVREIRRKEKEAVLAMWKKSK	2.98
FHALVREIRRKEKEAVLAMIKKSK	1.94
FHALVREIRRKEKEAVLAMLKKSK	1.61
FHALVREIRRKEKEAVLAMFKKSK	2.18
FHALVREIRRKEKEAVLAMGKKSK	1.41
FHALVREIRRKEKEAVLAMYKKSK	2.35
FHALVREIRRKEKEAVLAMRKKSK	2.59
FHALVREIRRKEKEAVLAMKKKSK	2.08
FHALVREIRRKEKEAVLAMDKKSK	2.17
